Reference: the RNAGym collection of RNA variant scans (doi:10.1093/nar/gkz1192)

B1: CPEB3 Ribozyme (parent)
chain: UAACAGGGGGCCACAGCAGAAGCGUUCACGUCGCAGCCCCUGUCAGAUUCUGGUGAAUCUGCGAAUUCUGCUGUAUAUCUC

Variants of: B1
Assay: self-cleavage, relative activity (ratio to wild type); higher = more cleavage; in vitro, sequencing
In short: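 Barcoded CPEB3 ribozyme mutants, produced by rounds of error-prone PCR, self-cleaved while being transcribed with T7 RNA polymerase for 5 hours at 37°C and during a subsequent 15 min DNase I step before EDTA was added. Sequencing of template-switched cDNA on Illumina gave cleaved and total reads, and DNA sequencing assigned barcodes to variants. Each variant's relative activity is its cleaved/total read fraction divided by the unmutated ribozyme's fraction, averaged across three batches. A variant needed a minimum of 5 reads.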

Point of comparison: A47U U48G, self-cleavage 0.18. Against it:
- U48C U80C — higher, 0.68
- U48G U54C — higher, 0.19
- A47U G70A — lower, 0.13
- A47U G70U — lower, 0.14
- U49C C71A — lower, 0.17
- U49C C71U — higher, 0.23
- U49C C71G — higher, 0.19
- U48A U78A — higher, 0.42
- U48A U78C — higher, 0.35
- U48A U60A — higher, 0.31
- U48A U60C — lower, 0.14
- U48A U60G — higher, 0.19
- U48G U69A — higher, 0.21
- U48G U69C — higher, 0.34
- U48C G61C — the same, 0.18
- U48C G61A — higher, 0.33
- U48G U67A — higher, 0.38
- U49C U66A — higher, 0.31
- U49C U66G — higher, 0.29
- U49C U66C — higher, 0.25
- U48G U80C — higher, 0.6
- U48A U74A — higher, 0.98
- A47U G52A — higher, 0.86
- U49C U54A — higher, 0.42
- U49C U54G — higher, 0.25
- U49C U54C — higher, 0.38
- U49C G52A — higher, 0.8
- U48C C71U — higher, 0.32
- U48C C71A — higher, 0.49
- A47U U51G — higher, 0.47
- A47U U51A — higher, 0.4
- A47U U51C — higher, 0.43
- U48C A56C — higher, 0.33
- U48C A56U — higher, 0.38
- U48C A56G — higher, 0.38
- A47U U48C — higher, 0.26
- U49A A64G — higher, 0.51
- U49A A64U — higher, 0.25
- U48A C79G — higher, 0.73
- U48C U66C — higher, 0.27
- U48C U66A — higher, 0.44
- A47U C79U — higher, 0.52
- U49C A75C — higher, 0.55
- U49C A75U — higher, 0.62
- U49C A75G — higher, 0.4
- U48C G52U — higher, 0.84
- U48C G52A — higher, 0.87
- U48C G52C — higher, 0.42
- U48C U51C — higher, 0.49
- U48C U51G — higher, 0.33
- U48C U51A — higher, 0.42
- U49C G61C — higher, 0.33
- U49C G61A — higher, 0.19
- U49C C68A — lower, 0.15
- U49C C68U — higher, 0.24
- U48C C62U — higher, 0.33
- U48A U58C — higher, 0.29
- U48A U58A — higher, 0.5
- U48A U58G — the same, 0.18
- A47U U54C — higher, 0.37
- A47U U54A — higher, 0.72
- U48C U76C — higher, 0.67
- U48C U76A — higher, 0.72
- U48C U49G — higher, 0.29
- U48C U49C — higher, 0.32
- U48C U49A — higher, 0.48
- A47U C81A — higher, 1.13
- U49C U80A — higher, 0.51
- U49C U78A — higher, 0.46
- U49C U78C — higher, 0.42
- U49C U78G — higher, 0.39
- U49A A65G — higher, 0.29
- U49A A65U — higher, 0.47
- U49A A65C — lower, 0.13
- U48C G63U — higher, 0.57
- U48C G63A — higher, 0.64
- U48C G63C — higher, 0.47
- U48G — higher, 0.5
- U48C — higher, 0.65
- U48A — higher, 0.48
- A47U U66A — higher, 0.26
- A47U U66C — higher, 0.36
- U48C U54A — higher, 0.71
- U48C U54C — higher, 0.4
- U48C U54G — higher, 0.38
- U48A C50U — higher, 0.35
- U48G G53C — higher, 0.55
- U48A U67C — higher, 0.25
- U49A U78G — higher, 0.6
- U49A U78C — higher, 0.57
- U49C U58C — higher, 0.24
- U49C U58A — lower, 0.14
- U49A U72A — higher, 0.44
- U49A U72G — higher, 0.4
- U49A U72C — higher, 0.87
- U49A U74A — higher, 1.34
- U49A U74C — higher, 0.95
- U48A U80A — higher, 0.87
- U48A U80C — higher, 0.57
- A47U U49C — higher, 0.46
- A47U U49A — higher, 0.41
- U49A U80A — higher, 0.88
- U49A U80C — higher, 0.69
- U49A U80G — higher, 0.88
- U48C A65U — higher, 0.27
- U48C A65G — higher, 0.27
- U48C A65C — higher, 0.21
- U49A C79U — higher, 1.07
- U48A U54A — higher, 0.43
- U48A U54C — higher, 0.39
- U49A U67C — higher, 0.3
- U49A U67A — higher, 0.57
- U48C G73C — higher, 1.23
- U48C G73U — higher, 0.95
- U49C C62A — lower, 0.17
- U49C C62G — higher, 0.46
- U49C C62U — higher, 0.33
- U48A A75G — higher, 0.32
- U48A A75U — higher, 0.61
- U48C U67C — higher, 0.3
- U48C U67A — higher, 0.3
- U48A C59A — higher, 0.44
- U49A C50A — higher, 0.5
- U48G U78C — higher, 0.59
- A47U C62U — higher, 0.33
- U49A G63A — higher, 0.69
- U49A G63C — higher, 0.88
- U49A G63U — higher, 0.63
- A47U G53U — higher, 1.03
- U48C U60G — higher, 0.33
- U48C U60A — higher, 0.26
- U48C U60C — higher, 0.26
- U49C C81A — higher, 0.76
- U49C C81G — higher, 0.51
- U49C C81U — higher, 0.68
- U49A C59U — higher, 0.19
- U49A C59A — higher, 0.34
- U48C G53A — higher, 0.69
- A47U G63A — higher, 0.29
- U48A C62U — higher, 0.43
- U48G A64U — lower, 0.17
- U48G A64G — higher, 0.45
- U49C — higher, 0.43
- U49A — higher, 0.71
- U48A U49C — higher, 0.3
- U48A U49G — higher, 0.21
- U48A U49A — higher, 0.38
- U49A U54C — higher, 0.54
- U49A U54G — higher, 0.27
- U49A U54A — higher, 0.81
- U48G A56G — higher, 0.28
- U49C U76C — higher, 0.48
- U49C U76A — higher, 0.49
- U48A U69C — higher, 0.44
- U48A U69A — the same, 0.18
- U48A U69G — higher, 0.34
- U48G U66C — higher, 0.45
- A47U U74A — higher, 0.64
- A47U U74G — higher, 0.96
- A47U U74C — higher, 1.14
- U48A U72C — higher, 0.45
- U48A U72G — higher, 0.58
- U48A U72A — higher, 0.22
- U49C U74C — higher, 0.65
- U49C U74G — higher, 0.59
- U49C U74A — higher, 0.71
